From the nanobody polyreactivity screen of Harvey et al. (2022)

Assay: yeast display, Sf9 membrane polyspecificity reagent, FACS + sequencing; frameworks hold sequencing errors
Method in brief: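 After 36–48 hours of galactose induction, yeast (Saccharomyces cerevisiae BJ5465) displaying a synthetic nanobody library were stained at 4 °C for 1 hour with 10% biotinylated, detergent-solubilized Sf9 membrane reagent. Streptavidin microbeads enriched the stained cells before FACS sorting into low and high (top ~1%) gates on anti-HA and streptavidin fluorescence. Each clone's polyreactivity label reflects its gate of origin.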

| Sequence | polyreactivity (PSR sort gate) |
| --- | --- |
| QVQIVESGGGLVQAGGSLRLSCAASGRTFQYYTMGWSRQAPGKEREFVAAIRDSGGSTYYADSVKGRFTISRDNAKNTVYLQMNSLKPEDTAVYYCAAYRPRKYDYWGQGTQVTVSS | high polyreactivity |
| QVQLVESGGGLVQARGSLRLSCAASGSTLSPYVMGWYRQAPGKERELVATISRSGGRTYYADSVKGRFTISRDNAKNTVYLQMNSLKPEDTAVYYCAARTYYWGALIVSYDYWGQGTQGTVSS | low polyreactivity |
| QVHLVESVGGLVQAGGSLRISCAASGRIFSKYAMGWYRQAPGKDRELVGAITSSTKYADSVKGRFTISRDNAKNTVYLQMHSLKPEDTAVYSCNAEFVWHTYYGADFKMDYWGQGTQVTVSS | high polyreactivity |
| QVQLVESGGGLLQAGGSLRLSCASSGRTFLVNAMGWYRQAPGKERELVAVITRVGSTNYADSVKGRFTISRDNAKNTVYLQMYSLKPEDTAVYYCAKQFSPYRSYGPVVRYDYWGQGTQLTVSS | low polyreactivity |
| QVQLVESGGGLVQAGGSLRLSCAASGFILYYYAKGWYRPAPGKERELVAAISWSGDSTYYADSVKGRFTISRDNAKNTVYLQMNSLKPEDTAVYYCAATWQLTHRYYWGQGTQVTVSS | low polyreactivity |
| QVQLVESGGGLVQAGGSLRLTCAASGIILVAYPMGWYRQAPGKERELVAAITTSGTSTYYADSVKGRFTISRDNAKNTGYVQMNSLKPEDTAVYYCAVRQRYGPARYDYWGQGTQVTVSS | high polyreactivity |
| QVQLVESGGGLVQAGGSLRLSCPASGRIFKSYAMGWYRHAPGKERELVAAINWSGGSKYYADSVKGRFTISRDNAKNTVYLQMNSLKPEDTAVYYCAAYFYGRWPYGTGYYYWGQGTQVTVSS | high polyreactivity |
| QVQLVESGGGLVQAGGSLRLSCAASGLIYPVYAMGWYRQAPGKEREFVAAITYDGGNTYYADSVKGRFTISRDNAKNTVYLQMNSLKPEDTAVYYCAAEGVELISTRDPHDDYWGQGTQVTVSS | low polyreactivity |
| QVQLVESGGGLVQAGGILRLSCAASGRIFHWYAMGWYRQAPGKERELVDAITDGYSTYYADSVNGRYKISRDNAKNTVYLQMNSLKPEETAVYYCAADVGYSPYVFGVTRYYKYDYWGQGTQVTVSS | low polyreactivity |
| QVQLVESGGGLVQAGGSLRLSCAASGFIFDKNAMGWYRQAPGKERELVATITSGGSTYYADSVKGRFTISRDNAKNTVYFQMNSLKPDETAVYYCAALDYGYRWYRYYYWGQGTQVTVSS | high polyreactivity |
| QVQLVESGGGLVQAGGSLRLSCAASGSIFASNAMGWYRQAPGKEREFVAAITWRTDRTYYADSVKGRFTISRDNAKNTVYLQMNSLKPEDNAVYYCAADTWFDRFYYWGQGTQVTVSS | high polyreactivity |
| QVQLVESGGGLVQAGGSLRLSCAASGRIVRSYTMGWYRLEPGKERELVSDITSGTSTSYADSVKGRFTISRDNAKNTVYLQINSLKPEDTAVYYCNADVSNYFWNWPYQGMDYWGQGTQVTVSS | low polyreactivity |
| QVQLVESGGGLVQAGGSLRLSCAASGSTFQLYAMGWDRQAPGKERELVAAITSSAGRTYYADSVKGRFTISRDNAKNTVYLQMNSLKPEDTAVYYCAKDGSFTFWGQGTQVTVSS | low polyreactivity |
| QVQLEESGGGLVQAGGSLRLSCAASGFTFGVYPMGWYRQATGKEREFVADITYSGGSTYYADSVKGRFTISRDNAKNTVYLHMNSLKPEDTAVYYCAAGYVYTWYGEYVVGYDYWGQGTQVTVSS | high polyreactivity |
| QVQLVESGGGLVQAGGSLRLSCAASGSIFTLYAMGWYRQAPGKERELVAAIDSGGNTNYADSVKGRFTISRDNAKNTVYLQMNSLKPEDTAVYYCAKRHATEFDYWGQGTQVTVSS | low polyreactivity |
| QVQLVESGVGLVQARRSLRLSCAASGSSKLILWDGIDRRLGKKGSWLPLFVLVVLRNYADSVKGRFTISRDNAKNTVYLQMNILKPDDTEVYYCAATAIGSGGWGDYWGLGTQVTVSS | low polyreactivity |
| QVQLVESGGGLVQAGGSLRLSCAASGTTIYTNAKGWYRQAPGKEREFVAAISWSGSSTYADSVKGRFTISRDNAKNTFYLQMNSLKPEDTAVYYCAADWFKQRTDYYWGQGTQVTVSS | low polyreactivity |
| QVQLVESGGGLVQAGGSLRLSCAASGPTNAMGWYRQAPGKERELVAAITKSGGSTYYADSVKGRFTISRDNAKNTVYLLMNSLKPEDTAVYYCALILRHTAYYYWGQGTQVTVSS | high polyreactivity |
| QVQLVESGGGLVQAGGSLRLTCAASGRIFTRYMGWYRQAPGKERELVATINWSGGSTYYADSVKGRFTISRDNEKNTFYLQMNSLKPEDTAVYYCNARNVHFYYVQYNGAKIFDYWGQGTQVTVSS | low polyreactivity |
| QVQLVESGGGLVQAGGSLRLSCAASGRTLPAYAMGWYRQAPGKERELVAAISWGGGSTYYADSVKGRFTISRDNAKNTVYLQMNSLKPEDTAVYYCAVAGYWFAVAEYDYWGQGTQVTVSS | low polyreactivity |
| QVQLVESGGGLVQAGGSLRLSCAASGFTFKYYAMGWYRQAPGKERELVAGISLIDGSTYYADSVKGRFTISRDNAKNTVYLQMNSLKPEDTAVYSCAKDRAPDGHYGSYDYWGQGTQVTVSS | low polyreactivity |
| QVQLVESGGGLVQAGGSLRLSCAASGSIFRDYVMGWYRQAPGKERELVAAISGNDGSTYYADSVKGRFTISRDNAKNTVYLQMNSLKPEDTAVYYCNADEASTVPQFYSYLDFDYWGQGTQVTVSS | low polyreactivity |

| Sequence | polyreactivity (PSR sort gate) |
| --- | --- |
| QVQLVESGGGLVQAGGSLRLSCAASGSTFHGNAMGWYRQAPGKERELVAAISRSGGSTYYADSVKGRFTISRDNEKNTVYLQMNSLKPEDNAVYYCAADRPYYPLKYDYWGQGTQVTVSS | high polyreactivity |
| QVQLVESGGGLVQAGGILRISCAASGRTFIMNAMGWYRQAPGKERELVAAINWSGGTSTYYADSVKGRFTISRDNAKNTVYFQMNSLKPEDTAVYYCAADYYSYVYYDYWGQGTLVTVSS | low polyreactivity |
| QVQLVESGGGLVQAGGSLRLSCAASGRILPRNAMGWYRQAPGKERELVAGISSDGSPNYADSVKGRFTISRDKAKNTVYLQMNSLNPEDTAVYYCYADYLFYAFDYWGQGTQVTVSS | low polyreactivity |
| QVQLVESGGGLVQAGGSLRLSCAASGFIFRINAMGWYRQAPGKERELVARITSGGSTYYADSVKGRFTISRDNAKNTVYLQMNSLKPEDTAVYYCAARVKYYGSQSRYYWGQVTQVTVSS | high polyreactivity |
| QVQLVESGGGLVQAGGSLRLSCAASGFIFANYAMGWYRQAPGKERELVAAISSGRITYYADSVKGRFTISRDNAKNTVYLQMNSLKPEDTAVYYCAADVLYQDRSGEYHHWDGDYWGQGTQVTVSS | low polyreactivity |
| QVQLVESGGGLVQAGGSLRLSCACSGHTFSSYAIGWYRQAPGKERELVAAISVSATRTYYADSVKGRFTISRDNEKNTVYLQMNSLKPEDTAVYYFAARPVQFTYGYWGLGTQVTVSS | high polyreactivity |
| QVQLVESGGGLVQAGGSLRLSCAASGSIFYYYAMGWYRQAPGKERELVAAINSGVSTYYADSVKGRFTISRDNAKNTVYLQMNSLKPEDTAVYYCDATGHNLYGSWFSWTPDTYDYWGQGTQVTVSS | low polyreactivity |
| QVQLVESGGGLVQAGGSLRLSCAASGFTFYVYAMGWDRQAPGKEREFVAAISSSGGSTYYADSVKGRFTISRDNAKNTVYLQMNSLKPEDTAVYYCAALAYSTTRGRLDYWGQGTQVTVSS | high polyreactivity |
| QVQLVESGGGLVQAGGSLRLSCAASGSIFYYYAMGWYRQAPGKERELVAAISKSGGSTYADSVKGRFTISRDNAKNTVYLQMNSLKPEDTAVYYCAATYYYSWYAFNYWGQGTQVTVSS | low polyreactivity |
| QVQLVESGGGLVQAGGSLRLSCAASGIIFAYYAMGWYRQAPGKERELVAAITSGGSTHYADSVKGRFTISRDNAKNTVYLKMNSLKPEDTAVYYCAADVSYYASLFDYGGQGTQVTVSS | low polyreactivity |
| QVQLVESGGGLVQAGGSLRLSCAASGSIFVPYAMGWYRQAPGKERELVAAISSGGGRTYYADSVKGRFTIARDNAKNTVYLQMNSLKPEDTAVYYCAARYYIGYGHRTYGYDYWGQGTQVTVSS | high polyreactivity |
| QVQLVESGGGLVQAGGSLRLSCAASGSIISYYAMGWYRQAPGKERELVAAISRGGGRTYYADSVKGRFTISRDNAKNTVYLQMNSLKPEDTAVYYCAVTPVRFASGGAWMDYWGQGTQVTVSS | high polyreactivity |
| QVQRVESGGGLVQAGGSLRLSCAASASTIVIKAMGCYRQAPGKARELVADLDYRGGSTNYADSVKGRFTISRDNAKNTVYLQMNSLKPEDTAVYYFNKRYVIRRRGYDYWGQGTQVTVSS | low polyreactivity |
| QVQLVESGGGLVHAGGSLRLSCAASGIIFPYNLMGWYRQAPGKERELVADITRGAASTYYADSVKGRFTISRVNAKNTVYFQMNRLKTEDTAVYFCNADGTWRTYNFWGQGTQVTVSS | high polyreactivity |
| QVQLVESGGGLVQAGGSLRLSCAASGYTFPSNAMGWYREAPGKERELVAAISSGARTNYADSVKGRFTISRDNAKNTVYLQMNSLKPEDTAVYYCNKAAASFRHFYGYGYWGQGTQVTVSS | low polyreactivity |
| QVQLVESGGGLVQAGGSLRLSCAASGLPFRYNVMGWYRQAPGKETALGATISTSAGDTYYADSVKGRFTISRDNAKNTVYLQMNSLKPEDTAVYYCNAEAWYSVEYDDWGQGTQVTVSS | low polyreactivity |
| QVQLVESGGGLVQAGGSLRLSCAASGSIFNRNVMGWYRQAPGKERELVAAITWSGASTYYADSVKGRFTISRDNAKNTVYLQMNSLKPEDTAVYYCAARGPSRRRDGSDYWGQGTQVTVSS | high polyreactivity |
| QVQLVESGGGLVQAGGSLRLSCAASGIIFKSYAMGWYRQAPGKERELVAAISSGGSTYYVDSVKGRFTISRDNAKNTVYLQMNSLKPEDTAVYYCNARYKRYSYDYWGHGTQVTVSS | high polyreactivity |
| QVQLVESGGGLVQAGGSLRLSCAASGRIFDYYAMGWYRQAPGKERELVAAINSGGSTYYADSVKGRFTISRDNAKNTVYLQMNSLKPEDTAVYYCNALRKSLRGGDYWGQGTQVTVSS | high polyreactivity |
| QVQLVESGGGLVQAGGSLRLSCAASGFTIQRYAMGWSRQAPGKERELVAAITSGGSTYYADSVKGRFTISRDNAKNTVYLQMNSLKPEDTAVYYCAAYYRGRAYISYGYWGQGTQVTVSS | high polyreactivity |
| QVQLVESVGGLVQAGGSLSLRCAASGLISRRNAMGWYRQAPGKERELVAAISTGSSTNYADSVKGRFTISRDNAKNTVYLQMNSLKTEDTAFYYCATDYLAGAPCEGHVEREYDYWGQGTQVTVSS | low polyreactivity |
